The term stoichiometry N denotes the number of molecules, sites or subunits per partner or assembly.

Holding throughout (settings): both partners purified
For assay [1], the target named is T1, GB1-polyproline peptide P22.
T1 construct: common N-terminal residues after the TEV site (TEVsite-GAMSGS-peptide-SGSN); 22 consecutive prolines; common C-terminal residues; pET24 vector with 6xHis, GB1 and TEV site as N-terminal cassette, not cleaved; also called polyproline length 22; source: E. coli BL21(DE3), purified (Ni-NTA, SEC); not shown: GB1, N-terminal, kept
T1 chain: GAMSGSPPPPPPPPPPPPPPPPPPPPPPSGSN
In words: ITC; MicroCal PEAQ-ITC, 25 °C, 20 mM sodium phosphate pH 6.5, 100 mM NaCl; GB1-polyproline peptides in the cell, WW12 in the syringe (N sites >1: more than one WW tandem on one peptide); one-site model; apparent. A general note: Isothermal titration calorimetry measures the heat released or taken up as one component is titrated into another.

In assay [2] the target is T2, GB1-polyproline peptide P25.
T2 construct: common N-terminal residues after the TEV site (TEVsite-GAMSGS-peptide-SGSN); 25 consecutive prolines; common C-terminal residues; pET24 vector with 6xHis, GB1 and TEV site as N-terminal cassette, not cleaved; also called polyproline length 25; source: E. coli BL21(DE3), purified (Ni-NTA, SEC); not shown: GB1, N-terminal, kept
T2 chain: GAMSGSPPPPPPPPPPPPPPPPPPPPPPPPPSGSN
The description is as above.

The target of assay [3] is T3, GB1-polyproline peptide P29.
T3 construct: common N-terminal residues after the TEV site (TEVsite-GAMSGS-peptide-SGSN); 29 consecutive prolines; common C-terminal residues; pET24 vector with 6xHis, GB1 and TEV site as N-terminal cassette, not cleaved; also called polyproline length 29; source: E. coli BL21(DE3), purified (Ni-NTA, SEC); not shown: GB1, N-terminal, kept
T3 chain: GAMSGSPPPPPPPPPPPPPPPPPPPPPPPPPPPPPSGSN
The description is as above.

Assay [4] deals with T4, GB1-SF1 Pro BC (residues 468-594) (UniProt Q15637 468-594).
T4 construct: SF1 (splicing factor 1) residues 468-594; pET24 vector with 6xHis, GB1 and TEV site as N-terminal cassette, not cleaved; source: E. coli BL21(DE3), purified (Ni-NTA, SEC); not shown: GB1, N-terminal, kept
T4 sequence (looked up): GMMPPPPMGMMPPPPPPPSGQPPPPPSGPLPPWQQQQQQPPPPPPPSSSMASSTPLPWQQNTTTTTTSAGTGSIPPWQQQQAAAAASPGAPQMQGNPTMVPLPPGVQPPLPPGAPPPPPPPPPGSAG
In words: ITC; MicroCal PEAQ-ITC, 25 °C, 20 mM sodium phosphate pH 6.5, 100 mM NaCl; GB1-tagged SF1/SF3A1 constructs in the syringe, WW12 in the cell (N sites <1: more than one WW tandem on one construct); one-site model; apparent.

Assay [5] addresses T5, GB1-SF1 Pro CD (residues 539-639) (UniProt Q15637 539-639).
T5 construct: SF1 (splicing factor 1) residues 539-639; pET24 vector with 6xHis, GB1 and TEV site as N-terminal cassette, not cleaved; source: E. coli BL21(DE3), purified (Ni-NTA, SEC); not shown: GB1, N-terminal, kept
T5 sequence (looked up): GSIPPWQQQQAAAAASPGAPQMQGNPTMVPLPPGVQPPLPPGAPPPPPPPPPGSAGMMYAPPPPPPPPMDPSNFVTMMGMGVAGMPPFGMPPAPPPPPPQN
The assay is described as above.

In assay [6] the target is T6, GB1-SF1 Pro BCD (residues 468-639) (UniProt Q15637 468-639).
T6 construct: SF1 (splicing factor 1) residues 468-639; pET24 vector with 6xHis, GB1 and TEV site as N-terminal cassette, not cleaved; source: E. coli BL21(DE3), purified (Ni-NTA, SEC); not shown: GB1, N-terminal, kept
T6 sequence (looked up): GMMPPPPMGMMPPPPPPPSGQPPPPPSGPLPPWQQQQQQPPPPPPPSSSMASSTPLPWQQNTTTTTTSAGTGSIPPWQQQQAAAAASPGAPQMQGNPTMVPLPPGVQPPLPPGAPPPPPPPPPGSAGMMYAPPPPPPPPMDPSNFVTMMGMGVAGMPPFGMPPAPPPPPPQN
The assay is described as above.

In assay [7] the target is T7, GB1-SF1 Pro ABCD (residues 410-639) (UniProt Q15637 410-639).
T7 construct: SF1 (splicing factor 1) residues 410-639, the complete proline-rich C-terminal region; pET24 vector with 6xHis, GB1 and TEV site as N-terminal cassette, not cleaved; also called complete C-terminal region of SF1; source: E. coli BL21(DE3), purified (Ni-NTA, SEC); not shown: GB1, N-terminal, kept
T7 sequence (looked up): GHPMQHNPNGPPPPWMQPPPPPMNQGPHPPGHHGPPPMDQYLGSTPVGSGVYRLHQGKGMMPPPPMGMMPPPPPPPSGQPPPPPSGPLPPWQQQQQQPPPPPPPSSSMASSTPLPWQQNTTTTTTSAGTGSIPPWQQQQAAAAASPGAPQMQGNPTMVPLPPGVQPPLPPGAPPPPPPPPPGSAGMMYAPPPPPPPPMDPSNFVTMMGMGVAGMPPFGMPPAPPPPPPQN
The description is as above.

Assay [8] concerns the target T8, GB1-SF3A1 C-ter Pro (residues 552-683) (UniProt Q15459 552-683).
T8 construct: pET24 vector with 6xHis, GB1 and TEV site as N-terminal cassette, not cleaved; source: E. coli BL21(DE3), purified (Ni-NTA, SEC); not shown: GB1, N-terminal, kept
T8 sequence (looked up): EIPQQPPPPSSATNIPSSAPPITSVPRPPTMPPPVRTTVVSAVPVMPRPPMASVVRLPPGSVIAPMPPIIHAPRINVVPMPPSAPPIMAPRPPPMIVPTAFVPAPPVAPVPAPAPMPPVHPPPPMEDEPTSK
Described as above.

In assay [9] the target is T9, PRPF40A WW12 (tandem WW domains, residues 141-236) (human, UniProt O75400 141-236).
T9 construct: pETM11 vector, NcoI/KpnI; 15N or 13C,15N labelled for NMR; also called PRPF40A WW tandem; PRPF40A tandem WW domains; source: E. coli BL21(DE3), purified (Ni-NTA, TEV, reverse Ni-NTA, SEC); not shown: His6, N-terminal, cleaved
In words: ITC; 16-mer SF1 and polyproline peptides (N-terminal GB1 tagged) in the cell and PRPF40A construct in the syringe (said for Fig. 2; not told for Fig. 5C); 25 °C, 20 mM sodium phosphate pH 6.5, 100 mM NaCl; one-site model; apparent affinities.

Assay [10] concerns the target T10, PRPF40A N-ext-WW12 (residues 56-236) (human, UniProt O75400 56-236).
T10 construct: PRPF40A isoform 1, residues 56-236: N-terminal proline-rich region and the WW tandem; also called N-terminal extended WW12 construct; source: E. coli BL21(DE3), purified (Ni-NTA, TEV, reverse Ni-NTA, SEC); not shown: His6, N-terminal, cleaved
T10 sequence (looked up): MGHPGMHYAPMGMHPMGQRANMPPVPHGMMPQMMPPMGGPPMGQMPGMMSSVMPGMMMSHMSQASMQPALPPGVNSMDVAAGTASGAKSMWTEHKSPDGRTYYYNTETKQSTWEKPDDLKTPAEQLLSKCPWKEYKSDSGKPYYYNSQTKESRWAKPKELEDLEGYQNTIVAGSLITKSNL
The assay is described as above.

Assay [11] concerns the target T11, PRPF40A N-ext-WW12 mutant (PPVP/PALPP motifs changed to alanine residues) (human, UniProt O75400 56-236, PPVP, residues 78-81, to alanine residues | PALPP, residues 123-127, to alanine …).
T11 construct: PRPF40A isoform 1, residues 56-236, with the motifs PPVP (78-81) and PALPP (123-127) changed to alanine residues; Made by site-directed mutagenesis; also called mutant version of the N-ext-WW12 construct; mutated version of the N-extWW12; source: E. coli BL21(DE3), purified (Ni-NTA, TEV, reverse Ni-NTA, SEC); not shown: His6, N-terminal, cleaved
T11 sequence (looked up): T10 sequence (looked up) with P23A, P24A, V25A, P26A, P68A, L70A, P71A, P72A
The assay is described as above.

Assay [12] concerns the target T12, PRPF40A N-ext-WW12 (residues 56-236) (human, UniProt O75400 56-236).
T12 construct: PRPF40A isoform 1, residues 56-236: N-terminal proline-rich region and both WW domains; pETM11 vector; also called Nter Ext WW12; N-terminal extended WW12 construct; source: E. coli BL21(DE3), purified (Ni-NTA, TEV cleavage, reverse Ni-NTA, SEC); not shown: His6, N-terminal, cleaved
T12 sequence (looked up): T10 sequence (looked up)
Kind of assay: ITC; MicroCal PEAQ-ITC, 25 °C, 20 mM sodium phosphate pH 6.5, 100 mM NaCl; PRPF40A constructs and GB1-tagged SF1 16-mer peptides; who was in the syringe is not stated for these panels (Fig. 2B, Fig. 5C); one-site model.

The target in assay [13] is T13, PRPF40A N-ext-WW12 mutant (PPVP and PALPP motifs changed to alanine residues) (human, UniProt O75400 56-236, 78-81 PPVP to AAAA | 123-127 PALPP to AAAAA).
T13 construct: PRPF40A isoform 1, residues 56-236, with the two motifs PPVP (78-81) and PALPP (123-127) changed to alanine residues; made by site-directed mutagenesis of N-ext-WW12; also called Nter Ext WW12 MUTANT; mutated version of the N-extWW12; source: E. coli BL21(DE3), purified (Ni-NTA, TEV cleavage, reverse Ni-NTA, SEC); not shown: His6, N-terminal, cleaved
T13 sequence (looked up): T10 sequence (looked up) with P23A, P24A, V25A, P26A, P68A, L70A, P71A, P72A
Described as above.

Residue numbers refer to the chain shown, from its start. “And” between values parts separate entries of the source, which are not always exact repeats. Equal values may be shown once.

B1: PRPF40A WW12 (tandem WW domains, residues 141-236) (domain or fragment, human, UniProt O75400 141-236, looked up)
chain: GAKSMWTEHKSPDGRTYYYNTETKQSTWEKPDDLKTPAEQLLSKCPWKEYKSDSGKPYYYNSQTKESRWAKPKELEDLEGYQNTIVAGSLITKSNL
notes: pETM11 vector (NcoI/KpnI); also called PRPF40A WW tandem; isolated WW domains; source: E. coli BL21(DE3), purified (Ni-NTA, TEV cleavage, reverse Ni-NTA, SEC); not shown: His6, N-terminal, cleaved
For B1, the “stoichiometry N” value in assay [1] was 1.41 and 1.37 and 1.39; in assay [2] it was 2.21 and 2.39 and 2.3; in [3] it was 2.38 and 2.56 and 2.47. The Kd is 3.63 µM and 7.76 µM and 9.11 µM and 6.83 µM in assay [4]; 2.83 µM and 4.32 µM and 4.26 µM and 3.8 µM in assay [5]; 2.93 µM and 4.36 µM and 3.65 µM in assay [6]; 5.41 µM and 4.4 µM and 4.91 µM in assay [7]; 23.8 µM and 14.8 µM and 19.3 µM in [8].

B2: GB1-tagged SF1 575-590 peptide (SF1 PRPF40A WW binding site) (peptide)
chain: GAMSGSPPLPPGAPPPPPPPPPSGSN
notes: common N-terminal residues after the TEV site (TEVsite-GAMSGS-peptide-SGSN); SF1 residues 575-590; common C-terminal residues; pET24 vector with 6xHis, GB1 and TEV site as N-terminal cassette; not cut with TEV for ITC and NMR titrations; also called SF1_(WWbs); source: E. coli BL21(DE3), purified (Ni-NTA, SEC), GB1 tag kept; not shown: GB1, N-terminal, kept
In the case of B2, the figures for the Kd in assay [9] and in assay [10] were 1.4 µM and 8.8 µM, respectively. The binding result in assay [11] was “binds”.

B3: GB1-SF1(575-590) 16-mer peptide, SF1 PRPF40A WW binding site (peptide)
chain: GAMSGSPPLPPGAPPPPPPPPPSGSN
notes: common N-terminal residues after the TEV site (TEVsite-GAMSGS-peptide-SGSN); SF1 (splicing factor 1) residues 575-590; common C-terminal residues; pET24 vector with 6xHis, GB1 and TEV site as N-terminal cassette, not cleaved for ITC; also called SF1_(WWbs); SF1 WWbs; source: E. coli BL21(DE3), purified (Ni-NTA, SEC); not shown: GB1, N-terminal, kept
As to B3, the Kd was 9.19 µM and 8.22 µM and 8.71 µM in [12]; 2.44 µM and 1.98 µM and 2.21 µM in [13].

The record behind these values is PMC11079029, “Intramolecular autoinhibition regulates the selectivity of PRPF40A tandem WW domains for proline-rich motifs” (Nature Communications, 2024).
